From PMC3316568, “Crystal Structure of Streptococcus pyogenes Csn2 Reveals Calcium-Dependent Conformational Changes in Its Tertiary and Quaternary Structure” (PLoS ONE, 2012) come the findings set out here.

Data set [1] concerns the molecule itself. Description: crystal structure; selenomethionyl Csn2, 2.2 Å, MAD; crystals at 20°C from 150 mM KCl, 4 mM DTT, 100 mM HEPES pH 7.0 with 2.3 M sodium acetate pH 7.0; no calcium added; dimer in the asymmetric unit, tetramer with the symmetry-related dimer.
Data set [2] deals with the molecule itself. Nature of the data set: SEC; analytical, Superdex 200 10/300 GL; 200 mM NaCl, 2 mM DTT, 10 mM Tris-HCl pH 8.0; 0.5 mL of 1.0 mg/mL Csn2; no calcium added. A general note: Size exclusion chromatography separates by hydrodynamic size, large species first.
Data set [3] concerns the target T1, Csn2 (Streptococcus pyogenes, UniProt Q99ZV9 1-220).
T1 sequence: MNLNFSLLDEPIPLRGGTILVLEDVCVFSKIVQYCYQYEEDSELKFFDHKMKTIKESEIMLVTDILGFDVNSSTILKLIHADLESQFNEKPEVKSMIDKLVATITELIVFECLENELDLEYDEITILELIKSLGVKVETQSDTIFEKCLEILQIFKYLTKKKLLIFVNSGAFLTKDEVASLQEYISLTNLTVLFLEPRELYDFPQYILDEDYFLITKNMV
Nature of the data set: EMSA; no added metal; DNA:Csn2 tetramer 1:0, 1:1, 1:10; non-specific binding; 50 mM NaCl, 20 mM HEPES pH 7.5, room temperature, 20 min; 150 ng DNA; 10% native Tris-glycine PAGE, ethidium bromide stain. The following applies: protein: recombinant; tags: (His)6-MBP tag removed by TEV protease; chain copies: 4. (A gel shift assay detects complexes by their altered migration in electrophoresis.)

The target of data set [4] is T1, Csn2. Nature of the data set: EMSA; no added metal; DNA:Csn2 tetramer 1:0, 1:1, 1:10; 50 mM NaCl, 20 mM HEPES pH 7.5, room temperature, 20 min; 150 ng DNA; 10% native Tris-glycine PAGE, ethidium bromide stain. As to conditions: protein: recombinant; tags: (His)6-MBP tag removed by TEV protease; chain copies: 4.

What is called stoichiometry N is a count of units in the complex or per binding partner.

B1: Selenomethionyl Streptococcus pyogenes Csn2 (natural protein)
chain: MNLNFSLLDEPIPLRGGTILVLEDVCVFSKIVQYCYQYEEDSELKFFDHKMKTIKESEIMLVTDILGFDVNSSTILKLIHADLESQFNEKPEVKSMIDKLVATITELIVFECLENELDLEYDEITILELIKSLGVKVETQSDTIFEKCLEILQIFKYLTKKKLLIFVNSGAFLTKDEVASLQEYISLTNLTVLFLEPRELYDFPQYILDEDYFLITKNMV
modifications: selenomethionine (SeMet labelling)
notes: Csn2, CRISPR-associated protein of the Nmeni subtype (type II-A), Streptococcus pyogenes; same construct as m1, expressed as selenomethionyl protein; residues up to 220 are named for the structure; Same construct as m1 with selenomethionine; Two monomers (A, B) in the asymmetric unit; the tetramer is formed with a symmetry-related dimer; also called SeMet Csn2; selenomethionyl S. pyogenes Csn2; …
As to B1, the “stoichiometry N” value in data set [1] was 4.

B2: Streptococcus pyogenes Csn2 (native) (natural protein)
chain: MNLNFSLLDEPIPLRGGTILVLEDVCVFSKIVQYCYQYEEDSELKFFDHKMKTIKESEIMLVTDILGFDVNSSTILKLIHADLESQFNEKPEVKSMIDKLVATITELIVFECLENELDLEYDEITILELIKSLGVKVETQSDTIFEKCLEILQIFKYLTKKKLLIFVNSGAFLTKDEVASLQEYISLTNLTVLFLEPRELYDFPQYILDEDYFLITKNMV
notes: Csn2, CRISPR-associated protein of the Nmeni subtype (type II-A), Streptococcus pyogenes; the csn2 gene cloned into pHMGWA; monomeric molecular weight printed as 26.0 kDa; residues up to 220 are named for the structure; also called Native Csn2; source: E. coli BL21 (DE3), purified (HisTrap HP, TEV cleavage, second HisTrap HP, Superdex200); not shown: His6, N-terminal, cleaved; MBP, N-terminal, …
As for B2, in data set [2], the “stoichiometry N” value stood at 4.

B3: control DNA 90 bp (ERD1 promoter) (dsDNA)
DNA 1: TCTTAAAACTCCACAAACATTACGGCAGTTAGAATTTAAATTTATCTTGGAATATTGTTTGTATATTATTAACAAATGTAAATTGGTGTA
DNA 2: TACACCAATTTACATTTGTTAATAATATACAAACAATATTCCAAGATAAATTTAAATTCTAACTGCCGTAATGTTTGTGGAGTTTTAAGA
As for B3, the binding result in the data set with Csn2 [3] is on record as “binds”.

B4: S. pyogenes CRISPR DNA 90 bp (dsDNA)
DNA 1: TTTTAGACAAAAATAGTCTACGAGGTTTTAGAGCTATGCTGTTTTGAATGGTCCCAAAACTGCGCTGGTTGATTTCTTCTTGCGCTTTTT
DNA 2: AAAAAGCGCAAGAAGAAATCAACCAGCGCAGTTTTGGGACCATTCAAAACAGCATAGCTCTAAAACCTCGTAGACTATTTTTGTCTAAAA
As for B4, the binding result with Csn2 [4] is given as “binds”.
